Here are results for 18 sequences from the DeepSol protein solubility set.

This series can be described thus: soluble on expression in E. coli; label from the status in PepcDB or PDB records.
Turning to “MNYLFKNGRYMNEEGKIVATDLLVQDGKIAKVAENITADNAEVIDVNGKLIAPGLVDVHVHLREPGGEHKETIETGTLAAAKGGFTTICAMPNTRPVPDCREHMEDLQNRIKEKAHVNVLPYGAITVRQAGSEMTDFETLKELGAFAFTDDGVGVQDASMMLAAMKRAAKLNMAVVAHCEENTLINKGCVHEGKFSEKHGLNGIPSVCESVHIARDILLAEAADCHYHVCHVSTKGSVRVIRDAKRAGIKVTAEVTPHHLVLCEDDIPSADPNFKMNPPLRGKEDHEALIEGLLDGTIDMIATDHAPHTAEEKAQGIERAPFGITGFETAFPLLYTNLVKKGIITLEQLIQFLTEKPADTFGLEAGRLKEGRTADITIIDLEQEEEIDPTTFLSKGKNTPFAGWKCQGWPVMTIVGGKIAWQKESALV”, the “soluble on expression in E. coli” value is recorded as “not soluble”.

Regarding “MNYPAEPFRIKSVETVSMISRDERVKKMQEAGYNTFLLNSKDIYIDLLTDSGTNAMSDKQWAGMMIGDEAYAGSENFYHLEKTVKELFGFKHIVPTHQGRGAENLLSQLAIKPGQYVAGNMYFTTTRFHQEKNGATFVDIVRDEAHDASLNLPFKGDIDLNKLATLIKEKGAENIAYICLAVTVNLAGGQPVSMANMRAVHEMASTYGIKIFYDATRCVENAYFIKEQEAGYENVSIKDIVHEMFSYADGCTMSGKKDCLVNIGGFLCMNDEEMFSAAKELVVVYEGMPSYGGLAGRDMEAMAIGLREAMQYEYIEHRVKQVRYLGDKLREAGVPIVEPTGGHAVFLDARRFCPHLTQDQFPAQSLAASIYMETGVRSMERGIVSAGRSKETGENHRPKLETVRLTIPRRVYTYAHMDVVADGIIKLYQHKEDIRGLTFVYEPKQLRFFTARFDFI”, the “soluble on expression in E. coli” value was “soluble”.

With “MNYPMIAGRVFGTPLLVDPVKGAAFLAGLGPRLVNGALELRGLEELAPDRVAEAGRIAPRASVLLDDAGDARREAGRPLYLVEGGVAVIEVTGTLVHRGGWIGQSSGTTSYEGLMAQISAAVADPSVRGIALEIDSYGGEVAGLFDLADAIRAARAVKPVRAFVAEAALSAAYAIASQAERIVLPRTGAVGSIGVLLVHADFSQAMADRGVAVTLIHAGRHKVDGNPYEALPEGVRADLQARVEASRALFAETVAAGRGARLSRQQALATEAQVLDGAAAVAAGLADEVSDLRRAFAAFRAELFDPHLTSPRAGTPAAAKETPTMTDETTTGAARGTAAEGSAPPMETAEGSGGGAPAANVAVAEAAELIEIGQQAARLGLAVDVADAMRRGLSAAALRRTVLDGLAARGDGADLVAHAPTAAAGPKESPLLAAARRTAEAQAASRRA”, the “soluble on expression in E. coli” value was “not soluble”.

Turning to “MNYRIIPVTAFSQNCSLIWCEQTRLAALVDPGGDAEKIKQEVDDSGLTLMQILLTHGHLDHVGAAAELAQHYGVPVFGPEKEDEFWLQGLPAQSRMFGLEECQPLTPDRWLNEGDTISIGNVTLQVLHCPGHTPGHVVFFDDRAKLLISGDVIFKGGVGRSDFPRGDHNQLISSIKDKLLPLGDDVIFIPGHGPLSTLGYERLHNPFLQDEMPVW”, the “soluble on expression in E. coli” value is “soluble”.

As for “MNYVPDTSVIVDGRFTAFISEREGSNVILPEAMLSEIEHQANEGRAIGFAALEELKKLRKMESEGKISIEIEGERPKEWQIKRAKSGEIDEMIRQVAFQYDATLVTGDIIQRDVAIVKGITVEYLSPPEKIIKNIEE”, the “soluble on expression in E. coli” value is “not soluble”.

As to “MPAAQEVQISIAEVIEVRGYGLNAPELLSVAVSAADRLPPCPKGTVFDTENVFLNSKGELVIKTVATSRVDRSFVPPEWAKGEEDAQAAAVYCLGAVLRAAGAEEAADVDLFSLVNILTVAMTGTRPTAHRMGQMARNQLRGRDPASMLMCIYEELMGDEDTNQKRPNRKINFLNEKSMF”, the “soluble on expression in E. coli” value is reported as “not soluble”.

As for “MPAGANSRTPATDFVQDYAAKRQAQMERARQLREDRLQQQQQQRQSSPKTSGGGNAYNSSPTYTAVPSASGGGTATAAPTSRQPPPPSLNVPRSRHVTPGHDSADSGSSPGKCGDGCVLYIKEQDFKQATQAGIITPDQARQLWAMLSNQIIRVCSPSAHANAVSVSSLLALSNNSYNSSGWAAGGPQSTGGSEFGASISLESLRTSIAYFKREQQRLQQQGGGGAAGAAHGSNAQGRHPLSSSPPALSNTVGQPLSQSRGLPQRQLQYDGNANSDYCRNDGAANDNEQRALGAPMPLRGSGGSGGGGRGGRPAWNSDVEVRHEDDYDDDRNRHAPSSMSTMNSGAAALKKPRTGRTNTVRPAAKGPAASSSPAAGASGVLGTSAQGRGYGSDNEEAGNNAYMPQQPSSAVPRGAKAGGSGAASRRPPASRPTAPPPSSGAPVNLDDVPVGGGGGGGGGMNDWANAYPPGMVPPTSTGGNDAIAAEAAAAAQEPMQECRTCGRRFRISVVMRHEALCRNQANKPRKVFNMREQRLDGVEGIKEVQRTAARSGGGGGGRGAGGGGGRGGGADAAAGAAKGKLPKWKVQHEQFQAAMRAVRQQKEAGGGFGSGRMAPPPAPIPEEYDDRVPCPHCGRKFAQDVAARHIPKCATTIAKPKGIRPIRR”, the “soluble on expression in E. coli” value is “not soluble”.

With “MPAHSFRIAAIPGDGIGLEVLPEGIRVLEAAALKHGLALEFDTFEWASCDYYLQHGKMMPDDWAEQLKQYDAIYFGAVGWPDKVPDHISLWGSLLKFRREFDQYVNIRPVRLFPGVPCALANRKVGDIDFVVVRENTEGEYSSLGGIMFENTENEIVIQESIFTRRGVDRILKYAFDLAEKRERKHVTSATKSNGMAISMPYWDKRTEAMAAHYPHVSWDKQHIDILCARFVLQPERFDVVVASNLFGDILSDLGPACAGTIGIAPSANLNPERNFPSLFEPVHGSAPDIFGKNIANPIAMIWSGALMLEFLGQGDERYQRAHDDMLNAIERVIADGSVTPDMGGTLSTQQVGAAISDTLARLD”, the “soluble on expression in E. coli” value is listed as “soluble”.

In the case of “MPALKKIEQSLDHLFQIEKYGKDSAFSRFIPAVYDPIKFPWQQFFEANFVDLFNGLMMHGSENVNKVFLAVFPTDDVLETFISQSTPGDLLFMHHPLVMECGDPLGRSGRGFLPIPEKYLQGIKEKQLSIYTCHVPMDFHQTHGTSISIAKALNATVVDDFAYGGPEQEPVGLICEIDETSTEALQKHLKQLFQIPYTDFEGKRHDSIKKIAIIAGCGDVVSLMKEAEEKGAEAYITGEIHCHIDNDYGRHKYSLIMDYVKETNMSLIGVSHSASEYLVKETLMYDWFKENFDVDVILLPQEKWWLMAGDPLEHHHHHH”, the “soluble on expression in E. coli” value is “not soluble”.

As to “MPCDPIGQFAVLECLDYRWYESLDVRLYGSFGLLQLFPELEKAVMRAFARAIPQGDDTPRVIGYYYTIGAESPIAVRKTPGATPHDLGAPNEHVWEKTNYTSYQDCNLWKDLGCDFVLQVYRDFLLTGADDVQFLRDCWDAIVETLDYVKTFDLDGDGIPENSGAPDQTFDDWRLQGVSAYCGGLWLAALAAAIAISDILLQNHQDSATKEHLLYQKSTYETWLTKSLPIYQEKLWNGKYYRLDSESGSDVVMADQLCGQFYANLLELPDIVPSDRAISALQTVYDACFLKFYDGQFGAANGVRPDGSPENPKATHPLEVWTGINFGLAAFLVQMGMKDEGFRLTQAVVEQIYNNGLQFRTPEAITAAGTFRASTYLRPMAIWAIYLMIGLEHHHHHH”, the “soluble on expression in E. coli” value is given as “not soluble”.

“MPCQKKSNPTELHISTGREIVQRNFVFRNTTGKDFLLKLHATNEAVTFPTEVFRFPPLAHRAIQFRVNSSKLSQWDKMNLLIKGYVLPIYAKSLKQFIDQKKTAGTKEQEAFSLSVKFTDQFSAPQTVINLPGYATCIESTDYPVDVEELDTTTAVNIERDVSTAVPIGSMMGFVEEYKRRQLNKGCWFSNYICGTEKQPEKQSMRSSRRSSRSSNHSAKSSKACRIQANKKNKSDVNVCLEATPCGGSTIQA”: the “soluble on expression in E. coli” value is listed as “not soluble”.

“MPCRGLHSIPAGPVEFPEIATVYVMCGEKLTVMIDAGVSNSIADFSFLDKLDYIVLTHLHIDHIGLLPELLQVYKAKVLVKSGFKKYLTSEDGLKKLNESAEKVLGDLYYVYGGLEKKLDQDKVIEVEGNEEFDLGGYRMRLIYTPGHARHHMSVLVDDFLFTGDSAGAYFNGVVIPTTPPVIDYKMYMESLKRQIELKPKVVGFAHGGLVSPKIMEEHLKQMLSKEEIQINVDIGGVAGEILRKQIEVNLRGLRESKKSI”: the “soluble on expression in E. coli” value is reported as “soluble”.

For “MPCRLTRLFGIEFPIIQAPMAGVQGSALAIAVSEAGGLGSLPCAMLSLEALEAELTAIRSQTAKPINVNFFCHREPVAQAAKQAAWLEQLAPYFAEFNLDPNAQPAGAQRTPYSKAQAEVLAKFKPEVVSFHFGLPDEELLLEIKSWGSKVISTATTVEEALWLEARGADAIIAQGLEAGGHRGHFLSEDLTEQLGTFSLLPQIIAAVEIPVIAAGGIVDATTVRAAMTMGASAVQVGTAYLLCPECNTSAIHREALQSDAAQHTALTNLFSGRPARGIVNRFMAEMGPMNEAVPDFPLASSAVAGLRTAAERLGFWDFSPLWCGQNASGCRAIPAADLTRSFVLSLPSSCVEPQEKSG”, the “soluble on expression in E. coli” value was “soluble”.

For the sequence “MPDNEVDLLFAQLSPEDLIEWSDYLPESFTDRALAQMGERQRQRFELYDQYSENEIGRYTDHQMLVLSDKATVAQAQRFFRRIELDCNDNLFIVDEADKYLGTVRRYDIFKHEPHEPLISLLSEDSRALTANTTLLDAAEAIEHSREIELPVIDDAGELIGRVTLRAATALVREHYEAQLMATAGMDESDDLFAPILKGAQRRAV”, the “soluble on expression in E. coli” value was “soluble”.

Take “MPDRHVASSETKRGGAGMTDRELSDQAIAVLVDVARTAGRDLNAGQRLELDRLVSDGLVAVSTSGDPAGQRHYRLTVAGQTALDQRGVGANEA”: the “soluble on expression in E. coli” value was “not soluble”.

With “MPDSILEAARGGRTMQKYSEMSKEQLQAVKKELDQQYAEIKAQGLALDMSRGKPSVDQLNISMDMMDVLSSSTDLRCETGVDCRNYGVMDGIPEAKRLLGEISEVDPEHIIIYGNSSLNVMFDTVSRSMTHGVMGNTPWCKLDKVKFLCPVPGYDRHFKITEFFGIEMINVPMSPEGPDMDMVEKLVSEDPAIKGIWCVPKYSNPQGYTYSEETVKRFANLKPAAPDFRIYWDNAYSVHHLYDDEKDQDFLLEILDECAKAGNPDMVYKFTSTSKISFPGSGIAALAASKANLDDIRKYITVQTIGHDKLNQLRHVKFFKDLEGVHAHMRKHAAILRPKFEMVEATLEKELGGLGIGEWTTPKGGYFISFESLDGCAKKIVAMAKEAGVVMTGAGATYPYGKDPKDSNIRIAPSFPPIEELEKAAQVFVVCVKLASVEKLLAE”, the “soluble on expression in E. coli” value is recorded as “not soluble”.

As for “MPDSLKSSIGYSRRFRLFRRGEVTVLEVMAGQKAYPDTLRYLLVPEGRPQPSGFVGYTVIRTPVKRIAVFSTTHIGFLDMLGRSDGIIGVSRPEFVNTPAVRSRIRSGAIKAIGMPFSPDVEALLNLEPDLVIAPALPAARKTDYQALVQAGIPVLVVAEWLEPSPLGRAEWIKLFGALVGKEKLARERFAAIESSYLKIAALSRNLPNRPTVLTGLPVKDAWYVPTGGSYVAAMLRDAGASYHWRDLPGTGSVPLTIEAVWPVALEAEYWLNTGTVSTLDELLAVDSRFGQMRSVRERRVWNNNRLVNAAGGNAYWESGVVRPDLILKDLVMILHPGLLRAHGIGEGELTFFQEVKLEHHHHHH”, the “soluble on expression in E. coli” value is recorded as “not soluble”.

Regarding “MPDTSPDLPAMSPLAVYRQAVEQRGFAPDEAQRRAAEALERCFQALHEAHRHGAIQGVYLWGPVGRGKTWLMDHFYQCLRVPARRQHFHHFMQWVHQRQFELTGTADPLRALARELARDVRVLCFDELFVSDIGDAILLGSLLRIMFEEGVVLVATSNQPPEQLYADGFNRERFLPAIEAIQRHMAVVAVDGGQDHRLHPGRAEQRYWVVEAGQASGFAELFARLSAGEAASTQPIELGHRPLAVHRHSESVLWCSYAQLCEAPLSALDFIGLCDRYRAILMDDLPCLSASQREGRIARGTEDGAQLVEAGDRELPQLSVHDDGVRRFIALVDECYDRKVPLYLEARVPLEALYTEGYLAFAFRRTLSRLREMQLARFGSDSAG”, the “soluble on expression in E. coli” value was “not soluble”.
